In CN114075291A (THE FIRST AFFILIATED HOSPITAL OF NAVAL MEDICAL UNIV OF …, dated 2022):

Molecular target: T1, 人PSMA抗原 (前列腺特异性膜抗原, prostrate specific membrane antigen) (human, UniProt Q04609 1-750)
T1 construct: whole, on cells; it is treated here as the same protein; also called PSMA蛋白
Assay: FACS, scFv culture supernatant on 293T-PSMA cells, APC anti 6XHis secondary

T1 sequence (Q04609 whole entry): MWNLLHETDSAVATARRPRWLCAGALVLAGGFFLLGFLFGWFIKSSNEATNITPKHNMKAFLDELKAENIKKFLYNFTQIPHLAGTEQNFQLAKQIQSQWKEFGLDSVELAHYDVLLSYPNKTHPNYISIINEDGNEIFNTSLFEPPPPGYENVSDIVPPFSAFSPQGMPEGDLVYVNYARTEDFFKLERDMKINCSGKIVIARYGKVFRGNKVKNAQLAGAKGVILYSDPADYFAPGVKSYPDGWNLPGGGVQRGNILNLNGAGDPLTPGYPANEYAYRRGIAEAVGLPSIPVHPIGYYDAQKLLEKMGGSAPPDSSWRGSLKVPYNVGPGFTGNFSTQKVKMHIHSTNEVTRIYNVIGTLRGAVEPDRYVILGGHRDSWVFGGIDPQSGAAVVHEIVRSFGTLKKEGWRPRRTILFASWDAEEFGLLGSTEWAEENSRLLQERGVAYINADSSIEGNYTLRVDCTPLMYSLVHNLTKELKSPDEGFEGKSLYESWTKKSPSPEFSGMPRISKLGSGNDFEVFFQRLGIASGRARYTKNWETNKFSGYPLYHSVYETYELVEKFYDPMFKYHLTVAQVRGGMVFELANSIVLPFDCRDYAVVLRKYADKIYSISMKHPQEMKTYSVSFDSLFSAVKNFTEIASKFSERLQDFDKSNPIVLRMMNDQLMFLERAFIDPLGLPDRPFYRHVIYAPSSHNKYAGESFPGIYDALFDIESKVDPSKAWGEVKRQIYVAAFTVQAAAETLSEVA

B1: 抗PSMA单链抗体1 (scFv, V domains shown)
VH: EVQLVESGGGVVQPGRSLRLSCAASGFTFSSYAMHWVRQAPGKGLEWVAVISYDGSNKYYADSVKGRFTISRDNSKNTLYLQMNSLRAEDTAVYYCARDYPLDDILTFPRVGTLDYWGQGTTVTVSS
VL: EIVLTQSPLSLPVTPGEPASISCRSSQSLLHSNGYNYLGWYLQKPGQSPQLLIYLGSNRASGVPDRFSGSGSGTDFTLKISRVEAEDVGVYYCMQALQTGFTFGPGTKVEIK
notes: Soluble scFv from a fully human phage library, made in E. coli TG1 and detected with APC anti 6XHis, so it carries a His tag; also called 抗体HTS0101; HTS0101
B1: binds.
